Reference: patent publication US20100229252, “MEGANUCLEASE VARIANTS CLEAVING A DNA TARGET SEQUENCE FROM THE HUMAN HEMOGLOBIN BETA GENE AND USES THEREOF” (CELLECTIS, published 2010)
Residue numbers refer to the chain shown, from its start.

Legend:
Test in all cases: cell_activity; CHO extrachromosomal LacZ assay
[1] = target: T1, I-CreI heterodimer HBB8.3_L3 / HBB8.4_A4 (Chlamydomonas reinhardtii, UniProt P05725;P05725 SEQ:1-167,SEQ:1-167)
T1 chain 1: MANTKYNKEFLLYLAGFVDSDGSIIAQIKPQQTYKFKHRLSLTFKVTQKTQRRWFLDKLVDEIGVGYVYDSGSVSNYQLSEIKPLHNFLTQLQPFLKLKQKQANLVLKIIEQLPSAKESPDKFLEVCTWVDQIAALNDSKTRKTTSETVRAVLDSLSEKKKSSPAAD
T1 chain 2: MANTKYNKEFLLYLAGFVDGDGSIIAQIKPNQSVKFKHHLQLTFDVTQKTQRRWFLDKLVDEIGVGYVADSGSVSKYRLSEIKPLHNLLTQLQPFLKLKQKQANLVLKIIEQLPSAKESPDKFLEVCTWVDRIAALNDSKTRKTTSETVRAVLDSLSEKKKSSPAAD

[2] = target: T2, I-CreI heterodimer HBB8.3_K3 / HBB8.4_B4 (Chlamydomonas reinhardtii, UniProt P05725;P05725 SEQ:1-167,SEQ:1-167)
T2 chain 1: T1 chain 1 with Q78I
T2 chain 2: T1 chain 2 with G20S, V34T, H39R, L88F, R132Q

[3] = target: T3, I-CreI heterodimer HBB8.3_B3 / HBB8.4_C4 (Chlamydomonas reinhardtii, UniProt P05725;P05725 SEQ:1-167,SEQ:1-167)
T3 chain 1: T1 chain 1 with S20G, Q78Y, V106A, L153Q
T3 chain 2: T1 chain 2 with G20S, H39R, L88F, R132Q

[4] = target: T4, I-CreI heterodimer HBB8.3_I3 / HBB8.4_D4 (Chlamydomonas reinhardtii, UniProt P05725;P05725 SEQ:1-167,SEQ:1-167)
T4 chain 1: T1 chain 1 with S20G, F55L, Q78Y
T4 chain 2: T1 chain 2 with R132Q

[5] = target: T5, I-CreI heterodimer HBB8.3_A3 / HBB8.4_C4 (Chlamydomonas reinhardtii, UniProt P05725;P05725 SEQ:1-167,SEQ:1-167)
T5 chain 1: T1 chain 1 with S20G, K45Q, L59Q, Y69A, Q78R, F88L
T5 chain 2: T1 chain 2 with G20S, H39R, L88F, R132Q

[6] = target: T6, I-CreI heterodimer HBB8.3_B3 / HBB8.4_B4 (Chlamydomonas reinhardtii, UniProt P05725;P05725 SEQ:1-167,SEQ:1-167)
T6 chain 1: T1 chain 1 with S20G, Q78Y, V106A, L153Q
T6 chain 2: T1 chain 2 with G20S, V34T, H39R, L88F, R132Q

[7] = target: T7, I-CreI heterodimer HBB8.3_C3 / HBB8.4_C4 (Chlamydomonas reinhardtii, UniProt P05725;P05725 SEQ:1-167,SEQ:1-167)
T7 chain 1: T1 chain 1 with S20G, Q31N, T33S, Y34G, R39K, Q78Y, I133V
T7 chain 2: T1 chain 2 with G20S, H39R, L88F, R132Q

B1: HBB8 (dsDNA)
DNA 1: CTGACTCCTGTGGAGAAGTCTG
DNA 2: CAGACTTCTCCACAGGAGTCAG
Binder B1 has an activity [1] of 2.32 absorbance units, an activity [2] of 2.06 absorbance units and an activity [3] of 2.32 absorbance units. For the same binder, the activity [4] was 1.57 absorbance units, the activity [5] was 1.56 absorbance units and the activity [6] was 2.29 absorbance units. For the same binder, the activity [7] was 2.62 absorbance units.

B2: HBB6 (dsDNA)
DNA 1: CTGACTCCTGAGGAGAAGTCTG
DNA 2: CAGACTTCTCCTCAGGAGTCAG
In the case of B2, the activity [1] is reported as 1.96 absorbance units, the activity [2] is reported as 1.57 absorbance units and the activity [3] is reported as 1.86 absorbance units. For the same binder, the activity [4] was 0.12 absorbance units, the activity [5] was 0.68 absorbance units and the activity [6] was 1.21 absorbance units. For the same binder, the activity [7] was 1.87 absorbance units.
